B1: endogenous Bcl2L12 polypeptide of human cell lines (LNZ308, LN443, LN382, U87MG, 293T) (other)
chain: MGRPAGLFPPLCPFLGFRPEACWERHMQIERAPSVPPFLRWAGYRPGPVRRRGKVELIKFVRVQWRRPQVEWRRRRWGPGPGASMAGSEELGLREDTLRVLAAFLRRGEAAGSPVPTPPRSPAQEEPTDFLSRLRRCLPCSLGRGAAPSESPRPCSLPIRPCYGLEPGPATPDFYALVAQRLEQLVQEQLKSPPSPELQGPPSTEKEAILRRLVALLEEEAEVINQKLASDPALRSKLVRLSSDSFARLVELFCSRDDSSRPSRACPGPPPPSPEPLARLALAMELSRRVAGLGGTLAGLSVEHVHSFTPWIQAHGGWEGILAVSPVDLNLPLD
notes: Endogenous protein in lysates or fixed cells of human cell lines

Tests used:
[1] = target: endogenous Apaf-1 polypeptide of 293T cells (human) (UniProt O14727); test: cell-based or functional assay
Chain of endogenous Apaf-1 polypeptide of 293T cells (human) (O14727 whole entry): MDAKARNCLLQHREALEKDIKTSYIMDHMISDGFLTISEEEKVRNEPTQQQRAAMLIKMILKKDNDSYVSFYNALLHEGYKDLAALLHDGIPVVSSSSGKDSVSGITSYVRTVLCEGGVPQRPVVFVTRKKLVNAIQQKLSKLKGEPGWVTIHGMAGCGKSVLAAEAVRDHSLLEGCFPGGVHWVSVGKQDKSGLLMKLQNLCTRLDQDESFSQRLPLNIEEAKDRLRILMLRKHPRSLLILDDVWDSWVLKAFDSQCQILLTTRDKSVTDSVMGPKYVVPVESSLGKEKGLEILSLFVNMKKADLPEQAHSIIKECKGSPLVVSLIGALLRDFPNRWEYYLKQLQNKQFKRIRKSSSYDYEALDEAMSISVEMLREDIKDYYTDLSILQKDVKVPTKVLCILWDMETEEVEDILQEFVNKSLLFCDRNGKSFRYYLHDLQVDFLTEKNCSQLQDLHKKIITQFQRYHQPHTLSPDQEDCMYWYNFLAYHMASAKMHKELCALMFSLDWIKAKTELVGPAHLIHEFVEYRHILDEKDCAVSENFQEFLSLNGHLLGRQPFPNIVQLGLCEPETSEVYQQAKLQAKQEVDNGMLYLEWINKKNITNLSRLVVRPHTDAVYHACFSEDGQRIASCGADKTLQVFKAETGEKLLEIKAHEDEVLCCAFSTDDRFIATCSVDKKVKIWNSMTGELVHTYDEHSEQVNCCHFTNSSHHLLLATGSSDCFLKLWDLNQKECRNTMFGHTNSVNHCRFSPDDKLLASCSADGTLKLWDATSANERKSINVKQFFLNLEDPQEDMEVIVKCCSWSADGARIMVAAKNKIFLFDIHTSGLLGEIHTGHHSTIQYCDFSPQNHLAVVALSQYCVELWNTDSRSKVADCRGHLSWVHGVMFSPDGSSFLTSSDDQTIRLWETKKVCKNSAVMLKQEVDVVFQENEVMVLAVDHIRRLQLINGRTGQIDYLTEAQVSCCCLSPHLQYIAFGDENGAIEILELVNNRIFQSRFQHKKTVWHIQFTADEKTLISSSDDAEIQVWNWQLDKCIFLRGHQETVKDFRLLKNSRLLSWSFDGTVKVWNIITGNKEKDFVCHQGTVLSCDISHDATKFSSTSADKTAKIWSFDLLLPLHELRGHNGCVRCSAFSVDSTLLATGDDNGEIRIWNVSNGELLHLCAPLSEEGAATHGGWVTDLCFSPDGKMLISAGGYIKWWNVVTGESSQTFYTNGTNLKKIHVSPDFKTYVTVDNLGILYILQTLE

[2] = target: T1, cytochrome c (endogenous, LNZ308, U87MG and 293T cells) (human, UniProt P99999 2-105); test: anti-L12-2 immunoprecipitation from LNZ308, U87MG and 293T lysates, western blot
T1 construct: also called apoptosome component cytochrome c
T1 sequence (P99999 2-105 limits assumed): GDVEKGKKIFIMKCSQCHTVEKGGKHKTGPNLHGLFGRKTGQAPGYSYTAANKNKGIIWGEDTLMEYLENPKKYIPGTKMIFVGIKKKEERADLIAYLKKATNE
Experimental: (§1) To define further the molecular actions of Bcl2L12 polypeptides, the physical interactions with key post-mitochondrial apoptosis signaling molecules were assessed. Anti-L12-2 immunoprecipitates from lysates of LNZ308, U87MG, and 293T cells were subjected to western blot analysis for procaspases 7 and 3 and cytochrome c. Briefly, cells were lysed in IP buffer. Cleared supernatants were incubated with prebleed serum (8 μl) coupled to Protein A-sepharose 4B beads (Sigma) for 1 hour and subsequently with anti-L12-2 antiserum (8 μl) for 1 to 2 hours. […] The blots were washed with PBS/Tween and developed with goat anti-rabbit IgG (1:10,000) or with goat anti-mouse antibodies (1:10,000) (Pierce) in 5% milk PBS/Tween. After washing with PBS/Tween, the blots were developed with the Lumigen PS3 kit (Amersham) following the manufacturer's protocol. 1/40 of the lysate used for the immunoprecipitation was loaded to quantify the amount of co-immunoprecipitated caspase-7. […] Anti-L12-2 immunoprecipitates from control- and siRNA#5-treated U87MG cells were also subjected to western blot analysis for caspase-7.

[3] = target: T2, endogenous procaspase-3 (LNZ308, U87MG and 293T cells) (human, UniProt P42574 1-277); test: as above
T2 sequence (looked up): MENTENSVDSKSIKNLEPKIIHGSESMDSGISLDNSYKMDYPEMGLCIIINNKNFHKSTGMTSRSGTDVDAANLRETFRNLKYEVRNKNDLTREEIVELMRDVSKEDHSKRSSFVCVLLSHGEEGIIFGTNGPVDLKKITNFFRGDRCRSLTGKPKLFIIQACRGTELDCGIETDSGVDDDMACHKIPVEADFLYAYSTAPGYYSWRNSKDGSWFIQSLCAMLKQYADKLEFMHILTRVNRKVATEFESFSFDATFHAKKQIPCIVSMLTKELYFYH
Experimental: as §1

| Molecule | caspase-9 activity in 293T cells (vector only: about 420 RFUs) [1] [RFUs] | binding result [2] | binding result [3] |
| --- | --- | --- | --- |
| Bcl2L12-ΔBH2ΔP-rΔIHD polypeptide, V5 tagged (human amino acid sequence 1-167) | 160 |  |  |
| B1 |  | no binding | no binding |
